From publication PMC10516966

Biological target: T1, Rat TRPV2 (transient receptor potential vanilloid 2 channel), full length, C-terminal 1D4 tag (rat), Q9WUD2
T1 chain: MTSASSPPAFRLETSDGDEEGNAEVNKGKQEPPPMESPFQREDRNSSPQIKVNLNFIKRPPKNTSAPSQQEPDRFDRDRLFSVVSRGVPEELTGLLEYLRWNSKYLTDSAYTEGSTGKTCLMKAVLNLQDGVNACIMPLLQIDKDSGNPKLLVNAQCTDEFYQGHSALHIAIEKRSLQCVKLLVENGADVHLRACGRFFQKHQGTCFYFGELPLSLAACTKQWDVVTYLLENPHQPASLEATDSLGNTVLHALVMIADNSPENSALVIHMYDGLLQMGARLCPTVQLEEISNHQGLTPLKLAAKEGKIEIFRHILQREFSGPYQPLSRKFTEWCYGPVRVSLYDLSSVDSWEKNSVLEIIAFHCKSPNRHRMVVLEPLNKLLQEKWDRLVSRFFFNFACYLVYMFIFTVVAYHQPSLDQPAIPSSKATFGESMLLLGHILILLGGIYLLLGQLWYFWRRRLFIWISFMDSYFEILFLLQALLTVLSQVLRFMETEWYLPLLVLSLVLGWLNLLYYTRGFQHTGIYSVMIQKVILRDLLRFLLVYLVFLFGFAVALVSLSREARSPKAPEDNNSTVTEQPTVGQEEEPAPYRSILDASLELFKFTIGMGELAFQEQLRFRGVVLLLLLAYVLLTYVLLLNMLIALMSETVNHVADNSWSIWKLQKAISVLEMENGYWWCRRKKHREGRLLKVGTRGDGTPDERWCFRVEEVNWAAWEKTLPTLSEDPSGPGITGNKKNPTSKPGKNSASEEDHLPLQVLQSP
Assay: high-speed atomic force microscopy (HS-AFM); TRPV2 reconstituted into soy polar lipid membranes (LPR 0.5-0.7) on mica; imaging buffer 20 mM Hepes pH 8.0, 150 mM NaCl; contacts between neighbouring tetramers scored as connected or not in binarised frames; dwell times fitted with a single exponential; thick continuous connections excluded
Settings: remark: other sources report otherwise

connection lifetime time constant: 2.2 s
B1: Rat TRPV2 (transient receptor potential vanilloid 2 channel), full length, C-terminal 1D4 tag, Q9WUD2 1-761 (natural protein)
chain: T1 chain
